Measurements published in the supplement of paper PMC5998384.

Assays:
[1] = test system: HeLa Kyoto; test: solubility in G1/S (NP-40 vs SDS abundance) (log2 ratio); higher = more soluble; conditions: cell cycle stage: G1/S
[2] = test system: HeLa Kyoto; test: melting temperature (median over replicates), in situ; higher = more thermally stable
[3] = test system: HeLa Kyoto; test: solubility change mitosis vs G1/S (difference of NP-40 vs SDS log2 ratios) (log2 ratio difference); higher = more soluble in mitosis
[4] = test system: HeLa Kyoto; test: thermal stability score vs G1/S (z-score of summed log2 fold changes over temperatures); higher = more thermally stable than in G1/S
[5] = cell cycle stage: early G1 (4.5 h after nocodazole release)
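Wherever melting temperature (median over replicates), in situ is given: HeLa Kyoto cells synchronized by double thymidine or nocodazole block, proteins quantified by TMT10plex mass spectrometry, three independent biological replicates.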
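Wherever solubility change mitosis vs G1/S (difference of NP-40 vs SDS log2 ratios) is given: synchronized HeLa Kyoto cells (double thymidine block for G1/S, nocodazole release for mitosis), protein amounts in NP-40 versus SDS lysates quantified by mass spectrometry, three biological replicates.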
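Wherever solubility in G1/S (NP-40 vs SDS abundance) is given: HeLa Kyoto cells arrested at G1/S by double thymidine block, proteins quantified by TMT10plex mass spectrometry in mild NP-40 versus SDS extracts, three biological replicates.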
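Wherever thermal stability score vs G1/S (z-score of summed log2 fold changes over temperatures) is given: synchronized HeLa Kyoto cells, proteins quantified by TMT10plex mass spectrometry, three biological replicates, mitosis taken 0.5 h after nocodazole release, G1/S directly after double thymidine block.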

Sequence	solubility in G1/S (log2) [1]	melting temperature ([2]; cell cycle stage: G1/S)	melting temperature ([2]; cell cycle stage: mitosis)	solubility change mitosis (log2) [3]	thermal stability score [4, 5]	thermal stability score ([4]; cell cycle stage: mitosis)
MTEEACRTRSQKRALERDPTEDDVESKKIKMERGLLASDLNTDGDMRVTPEPGAGPTQGLLRATEATAMAMGRGEGLVGDGPVDMRTSHSDMKSERRPPSPDVIVLSDNEQPSSPRVNGLTTVALKETSTEALMKSSPEERERMIKQLKEELRLEEAKLVLLKKLRQSQIQKEATAQKPTGSVGSTVTTPPPLVRGTQNIPAGKPSLQTSSARMPGSVIPPPLVRGGQQASSKLGPQASSQVVMPPLVRGAQQIHSIRQHSSTGPPPLLLAPRASVPSVQIQGQRIIQQGLIRVANVPNTSLLVNIPQPTPASLKGTTATSAQANSTPTSVASVVTSAESPASRQAAAKLALRKQLEKTLLEIPPPKPPAPEMNFLPSAANNEFIYLVGLEEVVQNLLETQGRMSAATVLSREPYMCAQCKTDFTCRWREEKSGAIMCENCMTTNQKKALKVEHTSRLKAAFVKALQQEQEIEQRLLQQGTAPAQAKAEPTAAPHPVLKQVIKPRRKLAFRSGEARDWSNGAVLQASSQLSRGSATTPRGVLHTFSPSPKLQNSASATALVSRTGRHSERTVSAGKGSATSNWKKTPLSTGGTLAFVSPSLAVHKSSSAVDRQREYLLDMIPPRSIPQSATWK [GATAD2A]	0.481	47.3 °C	50.4 °C	0.0452	0.921	3.21
MTELQQDVEDTKPAKVLGKRESKLGSAHSEAENGVEEKKKACRSPTAQSPTPSVEADSPDQKKIISLWSKSSFDGASLASDKNDCKTESKNDPKTERKKSSSSSQYKANMHFHKLFLSVPTEEPLKQSFTCALQKEILYQGKLFVSENWICFHSKVFGKDTKISIPAFSVTLIKKTKTALLVPNALIIATVTDRYIFVSLLSRDSTYKLLKSVCGHLENTSVGNSPNPSSAENSFRADRPSSLPLDFNDEFSDLDGVVQQRRQDMEGYSSSGSQTPESENSRDFHATESQTVLNVSKGEAKPTRADAHVNRVPEGKAKSLPVQGLSETVGILHKVKSQKCPMLHHILIFYAIVVCALIISTFYMRYRINTLEEQLGLLTSIVDTHNTEQAAPSGLRSQVQFNVEVLCQELTANIVKLEKIQNNLQKLLENGD [GRAMD3]	0.0879	49.3 °C	51 °C	-0.244	-0.258	1.75
MTELQSALLLRRQLAELNKNPVEGFSAGLIDDNDLYRWEVLIIGPPDTLYEGGVFKAHLTFPKDYPLRPPKMKFITEIWHPNVDKNGDVCISILHEPGEDKYGYEKPEERWLPIHTVETIMISVISMLADPNGDSPANVDAAKEWREDRNGEFKRKVARCVRKSQETAFE [UBE2G1]	0.543	51.7 °C	53 °C	0.0506	-0.274	0.392
MTEQAISFAKDFLAGGIAAAISKTAVAPIERVKLLLQVQHASKQIAADKQYKGIVDCIVRIPKEQGVLSFWRGNLANVIRYFPTQALNFAFKDKYKQIFLGGVDKHTQFWRYFAGNLASGGAAGATSLCFVYPLDFARTRLAADVGKSGTEREFRGLGDCLVKITKSDGIRGLYQGFSVSVQGIIIYRAAYFGVYDTAKGMLPDPKNTHIVVSWMIAQTVTAVAGVVSYPFDTVRRRMMMQSGRKGADIMYTGTVDCWRKIFRDEGGKAFFKGAWSNVLRGMGGAFVLVLYDELKKVI [SLC25A6]	-0.157	57.1 °C	57.4 °C	0.0142	-0.865	-3.48
MTERRRDELSEEINNLREKVMKQSEENNNLQSQVQKLTEENTTLREQVEPTPEDEDDDIELRGAAAAAAPPPPIEEECPEDLPEKFDGNPDMLAPFMAQCQIFMEKSTRDFSVDRVRVCFVTSMMTGRAARWASAKLERSHYLMHNYPAFMMEMKHVFEDPQRREVAKRKIRRLRQGMGSVIDYSNAFQMIAQDLDWNEPALIDQYHEGLSDHIQEELSHLEVAKSLSALIGQCIHIERRLARAAAARKPRSPPRALVLPHIASHHQVDPTEPVGGARMRLTQEEKERRRKLNLCLYCGTGGHYADNCPAKASKSSPAGKLPGPAVEGPSATGPEIIRSPQDDASSPHLQVMLQIHLPGRHTLFVRAMIDSGASGNFIDHEYVAQNGIPLRIKDWPILVEAIDGRPIASGPVVHETHDLIVDLGDHREVLSFDVTQSPFFPVVLGVRWLSTHDPNITWSTRSIVFDSEYCRYHCRMYSPIPPSLPPPAPQPPLYYPVDGYRVYQPVRYYYVQNVYTPVDEHVYPDHRLVDPHIEMIPGAHSIPSGHVYSLSEPEMAALRDFVARNVKDGLITPTIAPNGAQVLQVKRGWKLQVSYDCRAPNNFTIQNQYPRLSIPNLEDQAHLATYTEFVPQIPGYQTYPTYAAYPTYPVGFAWYPVGRDGQGRSLYVPVMITWNPHWYRQPPVPQYPPPQPPPPPPPPPPPPSYSTL [PEG10]	0.144	49.4 °C	49.8 °C	-0.00752	0.275	0.54
MTFQASHRSAWGKSRKKNWQYEGPTQKLFLKRNNVSAPDGPSDPSISVSSEQSGAQQPPALQVERIVDKRKNKKGKTEYLVRWKGYDSEDDTWEPEQHLVNCEEYIHDFNRRHTEKQKESTLTRTNRTSPNNARKQISRSTNSNFSKTSPKALVIGKDHESKNSQLFAASQKFRKNTAPSLSSRKNMDLAKSGIKILVPKSPVKSRTAVDGFQSESPEKLDPVEQGQEDTVAPEVAAEKPVGALLGPGAERARMGSRPRIHPLVPQVPGPVTAAMATGLAVNGKGTSPFMDALTANGTTNIQTSVTGVTASKRKFIDDRRDQPFDKRLRFSVRQTESAYRYRDIVVRKQDGFTHILLSTKSSENNSLNPEVMREVQSALSTAAADDSKLVLLSAVGSVFCCGLDFIYFIRRLTDDRKRESTKMAEAIRNFVNTFIQFKKPIIVAVNGPAIGLGASILPLCDVVWANEKAWFQTPYTTFGQSPDGCSTVMFPKIMGGASANEMLLSGRKLTAQEACGKGLVSQVFWPGTFTQEVMVRIKELASCNPVVLEESKALVRCNMKMELEQANERECEVLKKIWGSAQGMDSMLKYLQRKIDEF [CDYL]	-0.609	51.4 °C	51 °C	0.533	2.51	0.875
MTHEEHHAAKTLGIGKAIAVLTSGGDAQGMNAAVRAVVRVGIFTGARVFFVHEGYQGLVDGGDHIKEATWESVSMMLQLGGTVIGSARCKDFREREGRLRAAYNLVKRGITNLCVIGGDGSLTGADTFRSEWSDLLSDLQKAGKITDEEATKSSYLNIVGLVGSIDNDFCGTDMTIGTDSALHRIMEIVDAITTTAQSHQRTFVLEVMGRHCGYLALVTSLSCGADWVFIPECPPDDDWEEHLCRRLSETRTRGSRLNIIIVAEGAIDKNGKPITSEDIKNLVVKRLGYDTRVTVLGHVQRGGTPSAFDRILGSRMGVEAVMALLEGTPDTPACVVSLSGNQAVRLPLMECVQVTKDVTKAMDEKKFDEALKLRGRSFMNNWEVYKLLAHVRPPVSKSGSHTVAVMNVGAPAAGMNAAVRSTVRIGLIQGNRVLVVHDGFEGLAKGQIEEAGWSYVGGWTGQGGSKLGTKRTLPKKSFEQISANITKFNIQGLVIIGGFEAYTGGLELMEGRKQFDELCIPFVVIPATVSNNVPGSDFSVGADTALNTICTTCDRIKQSAAGTKRRVFIIETMGGYCGYLATMAGLAAGADAAYIFEEPFTIRDLQANVEHLVQKMKTTVKRGLVLRNEKCNENYTTDFIFNLYSEEGKGIFDSRKNVLGHMQQGGSPTPFDRNFATKMGAKAMNWMSGKIKESYRNGRIFANTPDSGCVLGMRKRALVFQPVAELKDQTDFEHRIPKEQWWLKLRPILKILAKYEIDLDTSDHAHLEHITRKRSGEAAV [PFKM]	0.0079	59.6 °C	59.7 °C	-0.181	-1.59	-1.13
MTIHQFLLLFLFWVCLPHFCSPEIMFRRTPVPQQRILSSRVPRSDGKILHRQKRGWMWNQFFLLEEYTGSDYQYVGKLHSDQDKGDGSLKYILSGDGAGTLFIIDEKTGDIHATRRIDREEKAFYTLRAQAINRRTLRPVEPESEFVIKIHDINDNEPTFPEEIYTASVPEMSVVGTSVVQVTATDADDPSYGNSARVIYSILQGQPYFSVEPETGIIRTALPNMNRENREQYQVVIQAKDMGGQMGGLSGTTTVNITLTDVNDNPPRFPQNTIHLRVLESSPVGTAIGSVKATDADTGKNAEVEYRIIDGDGTDMFDIVTEKDTQEGIITVKKPLDYESRRLYTLKVEAENTHVDPRFYYLGPFKDTTIVKISIEDVDEPPVFSRSSYLFEVHEDIEVGTIIGTVMARDPDSISSPIRFSLDRHTDLDRIFNIHSGNGSLYTSKPLDRELSQWHNLTVIAAEINNPKETTRVAVFVRILDVNDNAPQFAVFYDTFVCENARPGQLIQTISAVDKDDPLGGQKFFFSLAAVNPNFTVQDNEDNTARILTRKNGFNRHEISTYLLPVVISDNDYPIQSSTGTLTIRVCACDSQGNMQSCSAEALLLPAGLSTGALIAILLCIIILLVIVVLFAALKRQRKKEPLILSKEDIRDNIVSYNDEGGGEEDTQAFDIGTLRNPAAIEEKKLRRDIIPETLFIPRRTPTAPDNTDVRDFINERLKEHDLDPTAPPYDSLATYAYEGNDSIAESLSSLESGTTEGDQNYDYLREWGPRFNKLAEMYGGGESDKDS [CDH10]	0.0681	55.5 °C	52.5 °C	-0.163	-0.401	-1.3
